PMC8699727

Molecular target: Microtubules polymerized from purified porcine brain tubulin (porcine) (UniProt P02550)
Test: co-sedimentation

Substance: GST-TAOK2-C (1,187–1,235) (from UniProt Q9UL54 1187-1235) (domain or fragment)
- Kd: 670 nM
